Data as given in patent publication US20210292423A1 (published 2021).

How the values were obtained:
[1] = target: T1, Macaca fascicularis CD123 Fc-fusion protein (Macaca fascicularis); assay: SPR Proteon XPR36, rat IgG captured, CD123-Fc analyte
T1 construct: also called cyno CD123-Fc
Procedure: (§1) Screening of anti-CD123 rat IgGs for binding affinities to human CD123 and cross-reactivities to cyno CD123 was performed with hybridoma supernatants using a Proteon XPR36 (Biorad) in a one-shot kinetics approach. A capture assay was established using a goat anti-rat IgG (112-005-071, Jackson Immuno Research). The capture antibody was coated on GLC chips (176-5011, Biorad) to approx. 8000 RU in the vertical direction using the amine coupling kit (176-2410, Biorad). […] Binding kinetics with human and cyno CD123-Fc fusion protein was measured at 100 μl/min in the horizontal direction with 120 sec. and 600 sec. for association and dissociation, respectively. The CD123-Fc proteins were used in twofold dilutions from 6 nM to 100 nM. PBSET buffer (176-2730, Biorad) was used as assay buffer. Regeneration was achieved by injection of 10 mM Glycine buffer pH 1.5 for 18 sec at 30 μl/min. Data processing and analysis was performed using ProteonManager software v3.0. Fitting of the sensorgrams was done with a 1:1 Langmuir model.

[2] = target: T2, human CD123 Strep-II tagged Fc-fusion protein (human); assay: as above
T2 construct: also called human CD123-Fc; recombinant CD123
T2 sequence (chain, as listed by the source limits assumed): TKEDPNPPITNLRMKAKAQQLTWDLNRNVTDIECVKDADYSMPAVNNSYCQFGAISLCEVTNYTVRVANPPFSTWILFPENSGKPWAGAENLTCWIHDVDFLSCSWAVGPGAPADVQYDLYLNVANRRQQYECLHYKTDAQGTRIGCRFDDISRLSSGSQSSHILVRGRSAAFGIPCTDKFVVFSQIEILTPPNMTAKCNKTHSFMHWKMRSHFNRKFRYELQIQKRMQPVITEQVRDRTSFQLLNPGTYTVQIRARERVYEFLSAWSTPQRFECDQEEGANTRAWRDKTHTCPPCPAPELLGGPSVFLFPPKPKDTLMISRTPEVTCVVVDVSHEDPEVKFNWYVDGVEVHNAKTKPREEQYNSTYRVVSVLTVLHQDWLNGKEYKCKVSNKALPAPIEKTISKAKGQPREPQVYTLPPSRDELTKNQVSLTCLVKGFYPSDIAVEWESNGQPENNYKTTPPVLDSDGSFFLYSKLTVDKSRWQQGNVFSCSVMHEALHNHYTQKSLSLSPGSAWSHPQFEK
Procedure: as §1

[3] = target: T3, human CD123 (IL3RA) on cells (human, UniProt P26951 19-378); assay: flow cytometry, CD123 transfected HEK293, hybridoma supernatant
T3 construct: also called CD123 transfected HEK293; THP-1
T3 sequence (P26951 19-378): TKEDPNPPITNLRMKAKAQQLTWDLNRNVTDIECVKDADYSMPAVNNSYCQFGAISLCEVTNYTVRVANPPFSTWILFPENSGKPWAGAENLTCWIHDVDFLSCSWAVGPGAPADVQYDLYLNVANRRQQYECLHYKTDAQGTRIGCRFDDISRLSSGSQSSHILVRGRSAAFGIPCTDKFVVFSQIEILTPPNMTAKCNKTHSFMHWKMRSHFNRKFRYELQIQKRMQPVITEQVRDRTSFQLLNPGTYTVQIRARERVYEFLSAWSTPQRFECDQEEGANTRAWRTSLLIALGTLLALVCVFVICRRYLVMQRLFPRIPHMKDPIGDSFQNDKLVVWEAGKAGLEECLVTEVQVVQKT
Procedure: Cells were resuspended in 200 μl Stain Buffer with FBS per well and were measured using the MACSQuant (Miltenyi Biotec) or LSRII (BD) flow cytometer. Further data analyses were performed using the FlowJo software (Tree Star, Inc.). Read out was percentage of cells positive for antibody binding. Cells treated only with the secondary but no primary antibody were used to set the gates. Curves were calculated by XLfit (Algorithm 205).

[4] = target: T4, human CD3 (TCR complex) on primary human T cells or Jurkat cells (human, UniProt P07766 23-207); assay: flow cytometry, primary human T cells
T4 construct: on the cells it stands in the whole TCR/CD3 complex; also called Jurkat E6-1 (expressing human TCR)
Procedure: The binding capacity of the CD3-Fabs was determined by flow cytometry. Primary human T cells were used as target cells. Therefore, peripheral blood mononuclear cells (PBMCs) were isolated from 200 ml peripheral blood of healthy donors treated with EDTA by Ficoll density centrifugation. 15 ml Histopaque (Sigma-Aldrich) was preloaded on a 50 ml Leucosep-Tube (Greiner bio-one). Blood was diluted with autoMACS Rinsing Buffer+1% BSA (Miltenyi Biotec) and loaded on the membrane of a total of ten prepared tubes. Tubes were centrifuged without brake for 10 min at 1000 xg. PBMCs were collected and washed with autoMACS Rinsing Buffer+1% BSA three times. Finally, PBMCs were resuspended in autoMACS Running Buffer (Miltenyi Biotec) for isolation of T lymphocytes by autoMACSpro technology using the Pan T Cell isolation Kit (Miltenyi Biotec) according to manufacturer's instructions. Purity of separated T cells was analyzed by MACSQuant flow cytometry using the human 7-Color Immunophenotyping Kit (Miltenyi Biotec). Isolated T cells were resuspended in Stain Buffer with FBS (BD Pharmingen) and 1E5 cells in 100 μl per well were seeded in 96-well U-bottom suspension culture plates (Greiner bio-one). Fab antibodies were diluted 1:3 in serial in PBS (Invitrogen) and 5 μl each were added to the cells at a final maximum concentration of 30000 ng/ml. The assay was incubated for 45 min at 4° C. Cells were washed twice with Stain Buffer with FBS and 1 μg secondary antibody Goat F(ab′)2 Anti-Human kappa-FITC (Beckman Coulter, #732621) per well was added in 100 μl Stain Buffer with FBS per well. The assay was incubated for 20 min at 4° C. and washed twice afterwards. Cells were resuspended in 150 μl Stain Buffer with FBS per well and were measured using the MACSQuant (Miltenyi Biotec) or LSRII (BD) flow cytometer. Further data analyses were performed using the FlowJo software (Tree Star, Inc.). Read out was percentage of cells positive for antibody binding. Cells treated only with the secondary but no primary antibody were used to set the gates. EC50 Curves were calculated by XLfit (Algorithm 205), EC50 values were calculated as inflection point of the slope (data are shown in table 6).

[5] = target: T5, human CD3ε/δ-Fc fusion protein (soluble recombinant CD3ε/δ complex) (human, UniProt P04234 22-105); assay: SPR Biacore, CD3εδ-Fc captured, Fab analyte
T5 construct: also called huCD3ε/δ; huCD3; not shown: hinge, CH2, CH3 of human IgG with tag
T5 sequence (chain, as listed by the source mutant, chain 1 of 2): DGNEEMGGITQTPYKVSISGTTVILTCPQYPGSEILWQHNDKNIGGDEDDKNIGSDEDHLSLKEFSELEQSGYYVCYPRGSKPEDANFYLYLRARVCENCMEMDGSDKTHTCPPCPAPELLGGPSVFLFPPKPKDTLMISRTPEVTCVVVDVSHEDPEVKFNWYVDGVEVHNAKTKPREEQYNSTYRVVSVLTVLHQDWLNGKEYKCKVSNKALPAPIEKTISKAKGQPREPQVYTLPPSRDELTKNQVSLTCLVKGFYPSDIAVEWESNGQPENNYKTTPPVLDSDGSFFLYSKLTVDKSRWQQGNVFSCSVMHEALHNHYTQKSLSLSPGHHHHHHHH
T5 sequence (P04234 22-105, stated change not applied, chain 2 of 2): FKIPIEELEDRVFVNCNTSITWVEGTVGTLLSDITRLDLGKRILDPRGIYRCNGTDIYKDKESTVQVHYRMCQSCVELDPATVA
Procedure: Binding affinities of anti-CD3 binding Fabs or CODV-Fabs were measured by surface plasmon resonance (SPR) using a Biacore3000 instrument (GE Healthcare). Assay buffer was HBS-EP (BR-1001-88, GE Healthcare). Capture of CD3ε/δ-Fc fusion proteins was achieved using the human antibody capture kit (GE Healthcare). […] The CD3εδ-Fc fusions proteins were captured at 10 μl/min to approx. 70 RU to yield Rmax values of 30 RU. Binding kinetics with the anti-CD3 Fabs or CODV-Fabs was measured at 30 μl/min for 240 sec. and 600 sec. for association and dissociation phase, respectively. Twofold dilutions of Fabs from 3 to 400 nM in assay buffer were used. All Fab concentrations were run in duplicate together with duplicate buffer blanks for double referencing. Regeneration of the capture surface was performed with a 1 min injection of 3M MgCl2 solution at 30 μl/min. For data analysis the BIAevaluation software v.4.1 (GE Healthcare) was used. Data were fit globally using a 1:1 Langmuir model with mass transfer.

[6] = target: T6, human CD3ε and CD3δ co-expressed on HEK293F cells (human, UniProt P07766 23-207; P04234 22-171); assay: flow cytometry, transfected HEK293F
T6 construct: also called huCD3ε/δ (transfected cells); huCD3e + huCD3d
Procedure: (§2) To analyze binding of antibodies to human CD3ε and human CD3δ expressed on the surface of cells, HEK293F cells were transfected with both constructs either alone or in co-transfection and signals were measured by flow cytometry. For transfection procedure FuGENE HD Transfection Reagent (Promega, #E2311) was used according to manufacturer's protocol.
(§3) Antibodies for staining were seeded at 1 μg in 50 μl per well Stain Buffer with FBS (BD Pharmingen) in 96-well U-bottom suspension culture plates (Greiner bio-one). Harvested transfected cells were resuspended in Stain Buffer with FBS and were added at 50 μl per well to the antibodies. Cells were incubated at 4° C. in the dark for 30 min and were washed twice. 0.5 μg secondary antibody Goat F(ab′)2 Anti-Human IgG-FITC (Beckman Coulter, #732598) or Goat F(ab′)2 Anti-Human kappa-PE (Southern Biotech, #206209), respectively, in combination with 0.5 μg 7-AAD per well was added in 100 μl Stain Buffer with FBS. Cells were incubated at 4° C. in the dark for 15 min and were washed twice. For measurement, cells were resuspended in 200 μl Stain Buffer with FBS. Cells were measured using the MACSQuant (Miltenyi Biotec) or LSRII (BD) flow cytometer, respectively. Further data analyses were performed using the FlowJo software (Tree Star, Inc.).

[7] = target: T7, human CD3ε expressed alone on HEK293F cells (human, UniProt P07766 23-207); assay: flow cytometry, transfected HEK293F
T7 construct: also called huCD3ε
Procedure: as §2, §3

[8] = target: recombinant huCD3ε/γ protein with Fc-tag (PB01225) (human, UniProt P07766 23-126; P09693 23-116); assay: SPR, CD3-Fc captured, Fab 100 nM
Procedure: (§4) Binding was tested by SPR using a BIAcore3000 instrument run with HBS-EP buffer. Recombinant huCD3 proteins (ε/δ (PB01226), ε/γ (PB01225)) were captured at 10 μl/min via Fc-tag by anti-human Fc capture antibody MAB1302 (Millipore) immobilized on a CM5 sensor chip. Anti-CD3 Fabs were used as analytes at 100 nM with association and dissociation times of 240 sec and 300 sec, respectively at 30 μl/min. After each cycle the surfaces were regenerated by a 2 min pulse of 10 mM glycine buffer pH2.5.

[9] = target: T5, human CD3ε/δ-Fc fusion protein (soluble …); assay: SPR, CD3-Fc captured, Fab 100 nM
Procedure: as §4

[10] = target: T8, human CD3δ expressed alone on HEK293F cells (human, UniProt P04234 22-171); assay: flow cytometry, HEK293F transfected with huCD3δ
T8 construct: entry includes the signal peptide; also called huCD3δ
T8 sequence (P04234 22-171 limits assumed, stated change not applied): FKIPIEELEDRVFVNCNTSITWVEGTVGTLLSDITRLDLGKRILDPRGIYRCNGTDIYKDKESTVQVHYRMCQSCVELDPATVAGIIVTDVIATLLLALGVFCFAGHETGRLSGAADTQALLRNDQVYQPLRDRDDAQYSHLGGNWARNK
Procedure: as §2
Cells were incubated on a shaker at 37° C. and 5% CO2. At day one to three after transfection cells were harvested and binding of antibodies was analyzed by flow cytometry.
as §3

T1 sequence (chain, as listed by the source limits assumed): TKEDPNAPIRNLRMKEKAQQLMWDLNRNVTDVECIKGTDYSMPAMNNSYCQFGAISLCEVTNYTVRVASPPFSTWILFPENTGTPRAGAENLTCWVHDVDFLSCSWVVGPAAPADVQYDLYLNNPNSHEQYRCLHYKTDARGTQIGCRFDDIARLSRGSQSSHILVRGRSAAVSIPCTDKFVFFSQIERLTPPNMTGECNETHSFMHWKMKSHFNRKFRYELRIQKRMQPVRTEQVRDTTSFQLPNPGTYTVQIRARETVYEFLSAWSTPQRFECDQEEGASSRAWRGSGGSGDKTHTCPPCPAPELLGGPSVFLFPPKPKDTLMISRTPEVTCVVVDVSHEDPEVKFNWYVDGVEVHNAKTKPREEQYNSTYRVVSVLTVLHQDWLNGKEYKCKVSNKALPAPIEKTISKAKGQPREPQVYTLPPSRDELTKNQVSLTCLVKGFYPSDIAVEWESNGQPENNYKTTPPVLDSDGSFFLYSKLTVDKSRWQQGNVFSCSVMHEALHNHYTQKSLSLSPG

Kd [1] [pM] | Kd [2] [pM] | koff [2] [s⁻¹] | kon [2] [M⁻¹ s⁻¹] | EC50 [3] [ng/mL] | EC50 [4] [pM] | Kd [5] [pM] | koff [5] [s⁻¹] | kon [5] [M⁻¹ s⁻¹] | % antibody positive transfected cells [6] [%] | % antibody positive transfected cells [7] [%] | RU of Fab binding at 100 nM [8] [RU] | RU of Fab binding at 100 nM [9] [RU] | Binder | binding result [10]
790 | 750 | 0.00014 | 180000 | 6.1 | – | – | – | – | – | – | – | – | 6C10-C4 anti-CD123 rat IgG (hybridoma supernatant) (antibody, V domains shown, rat IgG; also called BFX - 6C10) VH: EVKLQESGPSLVQPSETLSLTCTVSGFSLTSYSVHWVRQHSGKSLEWMGRMWNDGDTSYNSAFTSRLSISRDTSKGQVFLKMNSLQTEDTGTYYCARGHRTPFDYWGQGVMVTVSS VL: DIVMTQSPSSLAVSAGETVTINCKSSQSFLSSGDERNYVAWYQHKPGQSPKLLIYWASTRHSGVPDRFIGSGSGTDFTLTISSVQAEDLAIYYCQQYYDTPLTFGSGTKLEIK | –
170 | 190 | 0.00028 | 1.5e+06 | 1.2 | – | – | – | – | – | – | – | – | 9B8-G6 anti-CD123 rat IgG (hybridoma supernatant) (antibody, V domains shown, rat IgG; also called BFX - 9B8) VH: EVKLQESGPSLVQSSQTLSLTCTVSGFSLTSYHIHWVRQPPGKGLEWMGVMWSDGDTSYSSALKSRLSISRDTSQSQVFLKMNSLQTEDTATYYCARGDYSSYIYLWFAYWGQGTLVTVSS VL: DIVMTQSPSSLAVSAGETVTINCKSSQSFLSSGDERNYVAWYQHKPGQSPKLLIYWASTRHSGVPDRFIGSGSGTDFTLTISSVQAEDLAIYYCQQYYDTPLTFGSGTKLEIK | –
70 | 300 | 0.00032 | 1e+06 | 0.9 | – | – | – | – | – | – | – | – | 9D7-C8 anti-CD123 rat IgG (hybridoma supernatant) (antibody, V domains shown, rat IgG; also called BFX - 9D7) VH: EVKLQESGPSLVQSSQTLSLTCTVSGFSLTSYHIHWVRQTPGKGLEWMGVMWSDGDTSYNSALKSRLSISRDTSQSQVFLKMNSLQTEDTATYYCARGYYSSYLYLWFAYWGQGTLVTVSS VL: DIVMTQSPSSLAVSEGETVTINCKSSQSFLSSGDGKNYVAWYQYKPGQSPKLLIYWASTRQSGVPDRFIGSGSGTDFTLTISTVQAEDLAIYYCQQYYDTPLTFGSGTKLEIK | –
– | – | – | – | – | 1700 | 4400 | 0.0011 | 250000 | 97 | 95 | 3 | 10 | 18G9-H11 Fab (Fab, V domains shown) VH: EVQLVETGGSLVQPGKSLKLTCATSGFTFSNAWIQWVRQSPEKQLEWVAQIKAKSNNYATYYAESVKGRFTISRDDSKSSVYLQMNSLKEEDTALYYCTWRHYYSSHTMDAWGQGTLVTVSS VL: DVVMTQTPVSLSVSLGGQVSISCRSSQSLVHNNGNTYLSWYLQKPGQSPQLLIYKVSNRFSGISDRFSGSGSGTDFTLKISRVAPTDLGVYYCGQGSQYPFTFGAGTKLELK | no binding (tested: <20% of binding of huCD3e + huCD3d)
100 | 10 | 6.2e-06 | 470000 | 0.4 | – | – | – | – | – | – | – | – | 8B11-B7 anti-CD123 rat IgG (hybridoma supernatant) (antibody, V domains shown, rat IgG; also called BFX - 8B11) VH: QVQLQESGPTLVNPGDSVKMSCKASGYTFTDHIIHWVKQSHGKSLEWIGYINPYSGGANYNGKFKSKATLTIDKSSSTAYMEFSRLTSGDSAIYYCALNYGSYYAMDAWGQGTSVTVSS VL: DIQMTQSPASLSASLGETVTIECRTSKDIYSNLAWFQQEPGNSPQLLIYDASNLADGVPSRFSGSGSGTQYSLQINNLQSEDVASYFCHQYNNYPYTFGTGTKLELK | –
500 | 40 | 6.7e-06 | 180000 | 1.3 | – | – | – | – | – | – | – | – | 9F6-G3 anti-CD123 rat IgG (hybridoma supernatant) (antibody, V domains shown, rat IgG; also called BFX - 9F6) VH: QVQLQESGPTLVKPGDSVKMSCKASGYTFTDYIIHWVKQSHGKSLEWIGYINPYSDGTNYNEKFKSKATLTVDKSTSTAYMEFSRLTSEDSAIYFCALNYGSYYAMDAWGQGTSVTVSS VL: DIQMTQSPASLSASLGETVTIECRPSEDIHSNVAWYQQKPGNSPQLLIYDASNLADGVPSRFSGSGSGTQYSLKINSLQSEDVASYFCHQYNIYPYTFGSGTKLELK | –
